We go through two molecules from publication PMC10397247.

Assay in all cases: two-hybrid library CCNG1;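 further: natural log of median RNA to DNA barcode read ratio; higher means stronger binding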
One assay deals with T1, P5A-bP.
T1 chain: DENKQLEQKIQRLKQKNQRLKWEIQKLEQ

Another assay concerns the target T2, P2A-bP.
T2 chain: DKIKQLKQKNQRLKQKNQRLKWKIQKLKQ

A further assay has as its target T3, P9A-bP.
T3 chain: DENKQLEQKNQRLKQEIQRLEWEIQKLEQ

The next assay concerns the target T4, P4A-bP.
T4 chain: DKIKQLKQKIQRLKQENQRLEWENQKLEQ

The next assay deals with T5, P8A-bP.
T5 chain: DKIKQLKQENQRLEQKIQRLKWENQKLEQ

The next assay has as its target T6, P6A-bP.
T6 chain: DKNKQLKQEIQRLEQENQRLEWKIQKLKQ

For a further assay, the target named is T7, P1A-bP.
T7 chain: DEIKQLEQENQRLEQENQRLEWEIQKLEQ

For the next assay, the target named is T8, P3A-bP.
T8 chain: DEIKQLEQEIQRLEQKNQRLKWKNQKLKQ

The next assay has as its target T9, P7A-bP.
T9 chain: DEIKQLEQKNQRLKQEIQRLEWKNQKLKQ

For another assay, the target named is T10, 4H932-bN.
T10 chain: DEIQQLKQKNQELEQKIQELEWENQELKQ

In a further assay the target is T11, 4H3364-bN.
T11 chain: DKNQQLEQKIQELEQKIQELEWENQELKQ

The target in the next assay is T12, 4H2931-bN.
T12 chain: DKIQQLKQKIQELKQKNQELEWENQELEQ

A further assay addresses T13, 4H730-bN.
T13 chain: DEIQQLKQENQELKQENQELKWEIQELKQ

In the next assay the target is T14, 4H349-bN.
T14 chain: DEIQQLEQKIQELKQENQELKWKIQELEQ

In a further assay the target is T15, 4H796-bN.
T15 chain: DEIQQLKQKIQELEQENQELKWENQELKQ

A further assay has as its target T16, 4H56-bN.
T16 chain: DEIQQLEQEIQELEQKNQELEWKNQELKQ

The target of another assay is T17, 4H949-bN.
T17 chain: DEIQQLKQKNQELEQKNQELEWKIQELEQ

In the next assay the target is T18, 4H2859-bN.
T18 chain: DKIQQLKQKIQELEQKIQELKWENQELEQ

A further assay has as its target T19, 4H3297-bN.
T19 chain: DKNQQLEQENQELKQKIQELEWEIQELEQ

A further assay concerns the target T20, O11-bH.
T20 chain: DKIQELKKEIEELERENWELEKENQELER

The target of a further assay is T21, 4H3381-bN.
T21 chain: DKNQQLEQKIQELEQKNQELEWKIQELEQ

For another assay, the target named is T22, 4H3041-bN.
T22 chain: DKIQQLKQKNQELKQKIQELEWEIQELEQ

Consider DEIKQLEQENQRLEQENQRLEWEIQKLEQ [P1A-bP], for which the interaction score with P5A-bP is -0.589; with P2A-bP, 1.97; with P9A-bP, -2.64; with P4A-bP, -1.23; with P8A-bP, -0.0351; in the assay with P6A-bP, -0.151. Besides, the interaction score is -1.8 with P1A-bP, -0.629 in the assay with P3A-bP and -0.745 with P7A-bP.
In the case of DKIQQLKQKIQELEQKIQELKWENQELEQ [4H2859-bN], the interaction score is -1.18 in the assay with 4H932-bN; -0.713 with 4H3364-bN; -0.613 with 4H2931-bN; -1.23 with 4H730-bN; -1.06 with 4H349-bN; -1.23 with 4H796-bN. Also, the interaction score was 0.857 with 4H56-bN; -2.31 in the assay with 4H949-bN; 0.927 in the assay with 4H2859-bN; 0.359 with 4H3297-bN; 0.17 with O11-bH; -1.35 with 4H3381-bN. Further, the interaction score with 4H3041-bN was found to be 0.995.
